Where “and” joins values, the source holds several entries; their conditions need not be identical. Identical values can stand only once.
T1: mouse MAdCAM (mouse, UniProt Q61826 22-365, limits assumed)
T1 construct: also called mouse MAdCAM-1; muMAdCAM
T1 sequence (looked up): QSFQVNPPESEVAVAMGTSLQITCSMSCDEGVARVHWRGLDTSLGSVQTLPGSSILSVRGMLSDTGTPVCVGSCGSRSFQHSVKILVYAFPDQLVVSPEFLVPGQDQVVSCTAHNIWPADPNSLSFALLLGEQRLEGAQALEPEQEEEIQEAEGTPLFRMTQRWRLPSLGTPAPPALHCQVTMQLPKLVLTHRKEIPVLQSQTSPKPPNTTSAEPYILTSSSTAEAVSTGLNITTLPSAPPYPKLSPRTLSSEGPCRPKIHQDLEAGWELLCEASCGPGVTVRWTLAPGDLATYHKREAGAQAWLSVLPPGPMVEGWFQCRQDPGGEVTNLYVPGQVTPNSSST

T2: human MAdCAM (human, UniProt Q13477 19-317, limits assumed)
T2 construct: also called huMAdCAM; human MAdCAM-1
T2 sequence (looked up): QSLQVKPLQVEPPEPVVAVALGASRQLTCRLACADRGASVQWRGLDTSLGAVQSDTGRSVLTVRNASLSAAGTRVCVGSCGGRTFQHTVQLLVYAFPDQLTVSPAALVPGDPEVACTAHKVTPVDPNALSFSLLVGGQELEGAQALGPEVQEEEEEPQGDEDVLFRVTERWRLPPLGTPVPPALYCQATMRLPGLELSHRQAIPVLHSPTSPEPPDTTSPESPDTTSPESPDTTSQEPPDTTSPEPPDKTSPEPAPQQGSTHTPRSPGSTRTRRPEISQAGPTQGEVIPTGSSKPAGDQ


What was measured:
mouse MAdCAM [1] = target: T1, mouse MAdCAM; assay: BLI (Octet)
human MAdCAM [2] = target: T2, human MAdCAM; assay: BLI (Octet)
cyno MAdCAM [3] = target: T3, cyno MAdCAM (cynomolgus); assay: BLI (Octet)
T3 construct: also called cynomolgus MAdCAM

mouse MAdCAM [4] = target: T1, mouse MAdCAM; assay: BLI (Octet), binder on anti-human Fc tips
human MAdCAM [5] = target: T2, human MAdCAM; assay: BLI (Octet), binder on anti-human Fc tips
cyno MAdCAM [6] = target: T3, cyno MAdCAM; assay: BLI (Octet), binder on anti-human Fc tips

Kd (mouse MAdCAM [1]) [nM] | koff (mouse MAdCAM [1]) [s⁻¹] | kon (mouse MAdCAM [1]) [M⁻¹ s⁻¹] | Kd (human MAdCAM [2]) [nM] | koff (human MAdCAM [2]) [s⁻¹] | kon (human MAdCAM [2]) [M⁻¹ s⁻¹] | Kd (cyno MAdCAM [3]) [nM] | koff (cyno MAdCAM [3]) [s⁻¹] | kon (cyno MAdCAM [3]) [M⁻¹ s⁻¹] | Kd (mouse MAdCAM [4]) [nM] | Kd (human MAdCAM [5]) | Kd (cyno MAdCAM [6]) [nM] | Binder | also measured
201 | 0.0776 | 386000 | 198 | 0.0511 | 259000 | 22.6 | 0.0102 | 453000 | – | – | – | PMAB18 (bispecific antibody, human IgG1, kappa) heavy: QVQLVQSGAEVKKPGASVKVSCKASGYSFTTYYMHWVRQAPGQGLEWMGIIAPSGGSTSYAQKFQGRVTMTRDTSTSTVYMELSSLRSEDTAVYYCASGWVYWGQGTLVTVSSASTKGPSVFPLAPSSKSTSGGTAALGCLVKDYFPEPVTVSWNSGALTSGVHTFPAVLQSSGLYSLSSVVTVPSSSLGTQTYICNVNHKPSNTKVDKKVEPKSCDKTHTCPPCPAPEAAGAPSVFLFPPKPKDTLMISRTPEVTCVVVDVSHEDPEVKFNWYVDGVEVHNAKTKPREEQYNSTYRVVSVLTVLHQDWLNGKEYKCKVSNKALPAPIEKTISKAKGQPREPQVYTLPPSREEMTKNQVSLTCLVKGFYPSDIAVEWESNGQPENNYKTTPPVLDSDGSFFLYSKLTVDKSRWQQGNVFSCSVMHEALHNHYTQKSLSLSPGGGGGSGGGGSGGGGSEVQLLESGGGLVQPGGSLRLSCAASGFTFSSYWMHWVRQAPGKGLEWVSYISGSGGYTNYADSVKGRFTISRDNSKNTLYLQMNSLRAEDTAVYYCARDRPYYYDMDVWGKGTTVTVSSGGGGSGGGGSGGGGSGGGGSDIQMTQSPSSLSASVGDRVTITCRASQSISSSLAWYQQKPGKAPKLLIYAASSLQSGVPSRFSGSGSGTDFTLTISSLQPEDFATYYCQQYKSYPVTFGQGTKVEIK light: not shown | response (human MAdCAM [2]): 0.184; response (cyno MAdCAM [3]): 0.145
59.5 | 0.00131 | 22000 | 47.6 | 0.00163 | 34300 | 44.3 | 0.00924 | 209000 | – | – | – | PMAB55 (bispecific antibody, human IgG1, kappa) heavy: EVQLVQSGAEVKKPGASVKVSCKASGYSFTSYYMHWVRQAPGQGLEWMGIINPSGGSTSYAQKFQGRVTMTRDTSTSTVYMELSSLRSEDTAVYYCASGWVYWGQGTLVTVSSASTKGPSVFPLAPSSKSTSGGTAALGCLVKDYFPEPVTVSWNSGALTSGVHTFPAVLQSSGLYSLSSVVTVPSSSLGTQTYICNVNHKPSNTKVDKKVEPKSCDKTHTCPPCPAPEAAGAPSVFLFPPKPKDTLMISRTPEVTCVVVDVSHEDPEVKFNWYVDGVEVHNAKTKPREEQYNSTYRVVSVLTVLHQDWLNGKEYKCKVSNKALPAPIEKTISKAKGQPREPQVYTLPPSREEMTKNQVSLTCLVKGFYPSDIAVEWESNGQPENNYKTTPPVLDSDGSFFLYSKLTVDKSRWQQGNVFSCSVMHEALHNHYTQKSLSLSPGGGGGSGGGGSGGGGSEVQLLESGGGLVQPGGSLRLSCAASGFTFSSYWMHWVRQAPGKGLEWVSYISGSGGYTNYADSVKGRFTISRDNSKNTLYLQMNSLRAEDTAVYYCARDRPYYYDLDVWGKGTTVTVSSGGGGSGGGGSGGGGSGGGGSDIQMTQSPSSLSASVGDRVTITCRASQSISSSLAWYQQKPGKAPKLLIYAASSLQSGVPSRFSGSGSGTDFTLTISSLQPEDFATYYCQQYKSYPVTFGQGTKVEIK light: not shown | –
248 | 0.00138 | 5570 | 592 | 0.14 | 236000 | 158 | 0.0114 | 71900 | – | – | – | PMAB54 (bispecific antibody, human IgG1, kappa) heavy: EVQLVQSGAEVKKPGASVKVSCKASGYSFTSYYMHWVRQAPGQGLEWMGIINPSGGSTSYAQKFQGRVTMTRDTSTSTVYMELSSLRSEDTAVYYCASGWVYWGQGTLVTVSSASTKGPSVFPLAPSSKSTSGGTAALGCLVKDYFPEPVTVSWNSGALTSGVHTFPAVLQSSGLYSLSSVVTVPSSSLGTQTYICNVNHKPSNTKVDKKVEPKSCDKTHTCPPCPAPEAAGAPSVFLFPPKPKDTLMISRTPEVTCVVVDVSHEDPEVKFNWYVDGVEVHNAKTKPREEQYNSTYRVVSVLTVLHQDWLNGKEYKCKVSNKALPAPIEKTISKAKGQPREPQVYTLPPSREEMTKNQVSLTCLVKGFYPSDIAVEWESNGQPENNYKTTPPVLDSDGSFFLYSKLTVDKSRWQQGNVFSCSVMHEALHNHYTQKSLSLSPGGGGGSGGGGSGGGGSEVQLLESGGGLVQPGGSLRLSCAASGFTFSSYWMHWVRQAPGKGLEWVSYISGSGGYTNYADSVKGRFTISRDNSKNTLYLQMNSLRAEDTAVYYCARDRPYYYDIDVWGKGTTVTVSSGGGGSGGGGSGGGGSGGGGSDIQMTQSPSSLSASVGDRVTITCRASQSISSSLAWYQQKPGKAPKLLIYAASSLQSGVPSRFSGSGSGTDFTLTISSLQPEDFATYYCQQYKSYPVTFGQGTKVEIK light: not shown | –
205 | 0.0558 | 272000 | 122 | 0.0389 | 320000 | 49.9 | 0.0153 | 306000 | – | – | – | PMAB57 (bispecific antibody, human IgG1, kappa) heavy: QVQLVQSGAEVKKPGASVKVSCKASGYSFTTYYMHWVRQAPGQGLEWMGIIAPSGGSTSYAQKFQGRVTMTRDTSTSTVYMELSSLRSEDTAVYYCASGWVYWGQGTLVTVSSASTKGPSVFPLAPSSKSTSGGTAALGCLVKDYFPEPVTVSWNSGALTSGVHTFPAVLQSSGLYSLSSVVTVPSSSLGTQTYICNVNHKPSNTKVDKKVEPKSCDKTHTCPPCPAPEAAGAPSVFLFPPKPKDTLMISRTPEVTCVVVDVSHEDPEVKFNWYVDGVEVHNAKTKPREEQYNSTYRVVSVLTVLHQDWLNGKEYKCKVSNKALPAPIEKTISKAKGQPREPQVYTLPPSREEMTKNQVSLTCLVKGFYPSDIAVEWESNGQPENNYKTTPPVLDSDGSFFLYSKLTVDKSRWQQGNVFSCSVMHEALHNHYTQKSLSLSPGGGGGSGGGGSGGGGSEVQLLESGGGLVQPGGSLRLSCAASGFTFSDFWMHWVRQAPGKGLEWISYISGDSGYTNYADSVKGRFTISRDNSKNTLYLQMNSLRAEDTAVYYCARDRPYYYYMDVWGKGTTVTVSSGGGGSGGGGSGGGGSGGGGSDIQMTQSPSSLSASVGDRVTITCRASQSVSRSLAWYQQKPGKAPKLLIYAASSLQSGVPSRFSGSGSGTDFTLTISSLQPEDFATYYCQQYKSYPVTFGQGTKVEIK light: not shown | response (human MAdCAM [2]): 0.18; response (cyno MAdCAM [3]): 0.169
– | – | – | – | – | – | – | – | – | 184 | 38.4 nM | 26.5 | MIAB1 (antibody, V domains shown, tested with human Fc) VH: EVQLLESGGGLVQPGGSLRLSCAASGFTFDDYAMHWVRQAPGKGLEWVASITSSSAFIDYADSVKGRFTISRDNSKNTLYLQMNSLRAEDTAVYYCAREPVDWNSYFDLWGQGTLVTVSS VL: EIVMTQSPATLSVSPGERATLSCRASQGISNSYLAWYQQKPGQAPRLLIYGASTRATGIPARFSGSGSGTEFTLTISSLQSEDFAVYYCQQYYTYPPTFGQGTKVEIK | –
– | – | – | – | – | – | – | – | – | – | – | 0.9 | MIAB125 (antibody, V domains shown, tested with human Fc) VH: EVQLLESGGGLVQPGGSLRLSCAASGFTFSNYAISWVRQAPGKGLEWSDISGSGGTTYYADSVKGRFTISRDNSKNTLYLQMNSLRAEDTAVYYCARERVDWNSYFDLWGQGTLVTVSS VL: EIVMTQSPATLSVSPGERATLSCRASQGISNSYLAWYQQKPGQAPRLLIYGASTRATGIPARFSGSGSGTEFTLTISSLQSEDFAVYYCQQYYTYPPTFGQGTKVEIK | –
– | – | – | – | – | – | – | – | – | 147 | 23.2 nM | 18.8 | MIAB2 (antibody, V domains shown, tested with human Fc) VH: EVQLLESGGGLVQPGGSLRLSCAASGFTFDDYAMHWVRQAPGKGLEWVASITSSSAFIDYADSVKGRFTISRDNSKNTLYLQMNSLRAEDTAVYYCARERVDWNSYFDLWGQGTLVTVSS VL: EIVMTQSPATLSVSPGERATLSCRASQGISNSYLAWYQQKPGQAPRLLIYGASTRATGIPARFSGSGSGTEFTLTISSLQSEDFAVYYCQQYYTYPPTFGQGTKVEIK | –
– | – | – | – | – | – | – | – | – | 77.5 | 19.3 nM | 19.5 | MIAB12 (antibody, V domains shown, tested with human Fc) VH: EVQLLESGGGLVQPGGSLRLSCAASGFTFDDYAMHWVRQAPGKGLEWVASITSSSAFIDYADSVKGRFTISRDNSKNTLYLQMNSLRAEDTAVYYCARERVDWNSYFDLWGQGTLVTVSS VL: EIVMTQSPATLSVSPGERATLSCRACPGISNSYLAWYQQKPGQAPRLLIYGASTRATGIPARFSGSGSGTEFTLTISSLQSEDFAVYYCQQYYTYPPTFGQGTKVEIK | –
– | – | – | – | – | – | – | – | – | – | – | 11.5 | MIAB124 (antibody, V domains shown, tested with human Fc) VH: EVQLLESGGGLVQPGGSLRLSCAASGFTFSTDAMSWVRQAPGKGLEWSAISGSGGSTYSADSVKGRFTISRDNSKNTLYLQMNSLRAEDTAVYYCARARVDWNSYNDLWGQGTLVTVSS VL: EIVMTQSPATLSVSPGERATLSCRASQSVNNKLAWYQQKPGQAPRLLIYAASTRATGIPARFSGSGSGTEFTLTISSLQSEDFAVYYCQQYSTWPITFGQGTKVEIK | –
– | – | – | – | – | – | – | – | – | – | 266 nM and 340 nM | 153 | MIAB169 (antibody, V domains shown, tested with human Fc; also called MIAB169-CHO; MIAB169-HEK) VH: EVQLLESGGGLVQPGGSLRLSCAASGFTFSDFWMHWVRQAPGKGLEWISYISGDSGYTNYADSVKGRFTISRDNSKNTLYLQMNSLRAEDTAVYYCARDRPYYYIMDVWGKGTTVTVSS VL: DIQMTQSPSSLSASVGDRVTITCRASQSVSRSLAWYQQKPGKAPKLLIYAASSLQSGVPSRFSGSGSGTDFTLTISSLQPEDFATYYCQQYKSYPVTFGQGTKVEIK | fold lower affinity than parent PRNT1 (human MAdCAM [5]): 10 fold; koff (human MAdCAM [5]): 0.0738 s⁻¹; kon (human MAdCAM [5]): 278000 M⁻¹ s⁻¹

From US20240010722A1 (published 2024)
